The record followed here is US20250171505A1 (CENTRE NATIONAL DE LA RECHERCHE SCIENTIFIQUE CNRS, published 2025).

Experiment [1] has as its target T1, VSV Gth, soluble form of the ectodomain of G (amino acid residues 1-422, generated by thermolysine l (vesicular stomatitis virus, Indiana …, UniProt P03522 17-438)).
T1 sequence: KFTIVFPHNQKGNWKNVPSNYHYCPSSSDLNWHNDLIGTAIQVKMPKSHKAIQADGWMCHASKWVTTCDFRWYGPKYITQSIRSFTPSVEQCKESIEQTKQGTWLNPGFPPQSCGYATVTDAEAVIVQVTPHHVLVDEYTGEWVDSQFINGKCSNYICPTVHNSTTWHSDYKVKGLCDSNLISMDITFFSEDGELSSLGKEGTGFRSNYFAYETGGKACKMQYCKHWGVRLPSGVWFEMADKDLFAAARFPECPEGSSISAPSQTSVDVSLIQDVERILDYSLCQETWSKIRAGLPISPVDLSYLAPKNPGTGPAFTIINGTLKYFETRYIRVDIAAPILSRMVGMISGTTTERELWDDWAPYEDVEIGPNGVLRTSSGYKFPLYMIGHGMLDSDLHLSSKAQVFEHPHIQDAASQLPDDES

For experiment [2], the target named is T1, VSV Gth, soluble form of the ectodomain …. As to the kind of experiment: ITC at 20 C, pH 8.0, CR domain injected into Gth.
For experiment [3] the target is unchanged. The experiment is described as follows: ITC at 20 C, pH 8.0.

B1: CR3 monovalent domain of human LDL-R (isolated, GST removed) (receptor)
chain: not shown
notes: domain: CR3
For orientation: Kd means the constant that tells how readily two partners part at equilibrium. Low values mean a tighter complex, high ones a looser complex. As for B1, the dissociation constant Kd in experiment [1] came out at 4.3 µM. In experiment [2], this molecule returned a stoichiometry of 1.

B2: CR1 monovalent domain of human LDL-R (isolated, GST removed) (receptor)
chain: not shown
notes: domain: CR1
For B2, in experiment [3], the binding result is recorded as “no binding”.

B3: CR2 monovalent domain of human LDL-R (isolated, GST removed) (receptor)
chain: not shown
notes: domain: CR2
On to B3, for which the dissociation constant (Kd) in experiment [1] was 7.3 µM. Further, the stoichiometry in experiment [2] came to 1.
